Entries after “also recorded” stand apart in the source; their conditions may differ. Like-named read-outs stand apart in the source and are kept apart here.
Tests used:
BxPC-3 cells = test: MTT cytotoxicity of Gemcitabine, parental BxPC-3; type: cell-based; settings: Homo sapiens, BxPC-3 parental cells
Experimental: (§1) Human pancreatic cancer (PDAC) cell lines, BxPC3 and MIAPaCa2 were used in the present invention. Gemcitabine resistant BxPC3 cell line (BxPC3GR) was generated as a chemoresistant cell line against gemcitabine by culturing BxPC3 cells in media containing increasing concentrations of gemcitabine and then maintained them at 0.5 μM gemcitabine. Gemcitabine resistant MIAPaCa2 cell line (MIAPaCa2GR) was generated by culturing MIAPaCa2 cells in media containing increasing concentrations of gemcitabine and then maintained them at 0.12 μM gemcitabine. […] MIAPaCa2 and MIAPaCa2GR are maintained in DMEM with 10% FBS, 1% penicillin-streptomycin, and 1% L-Glutamine.
(§2) To validate the establishment of Gemcitabine-resistant pancreatic ductal adenocarcinoma (PDAC) cell lines, MTT of Gemcitabine gradient was implemented with parental cells and Gemcitabine-resistant (GR) cells.
(§3) BxPC-3 and BxPC-3GR treated with gemcitabine from 0 nM to 100 nM, and measured by MTT (FIG. 3a). Similarly, MIAPaCa2 and MIAPaCa2GR also treated with gemcitabine from 0 nM to 100 nM, and measured by MTT (FIG. 3b).

BxPC-3GR cells = test: MTT cytotoxicity of Gemcitabine, Gemcitabine-resistant BxPC-3GR; type: cell-based; settings: Homo sapiens
Experimental: as §1, §2, §3

MIAPaCa2 cells = test: MTT cytotoxicity of Gemcitabine, parental MIAPaCa2; type: cell-based; settings: Homo sapiens, MIA PaCa-2
Experimental: as §1, §2, §3

MIAPaCa2GR cells = test: MTT cytotoxicity of Gemcitabine, Gemcitabine-resistant MIAPaCa2GR; type: cell-based; settings: Homo sapiens
Experimental: as §1
To validate the establishment of Gemcitabine-resistant pancreatic ductal adenocarcinoma (PDAC) cell lines, MTT of Gemcitabine gradient was implemented with parental cells and Gemcitabine-resistant (GR) cells. […]

BxPC-3GR [1] = test: Cell proliferation assay (CCK-8), BxPC-3GR; type: cell-based, Human; settings: Gemcitabine 100 nM, ONCO P-8 400 ng/mL (47 nM), IL-8 200 ng/mL, 24 hours
Experimental: The Gemcitabine-resistant cancer cells treated by Gemcitabine (100 nM) with ONCO P-8 (400 ng/mL, 47 nM), or treated by Gemcitabine with ONCO P-8 and IL-8 (200 ng/mL, 23.8 nM) for 24 hours.

BxPC-3 cell line = test: Transwell matrigel invasion assay, BxPC-3; type: cell-based, Human; settings: 24 hrs; for invasive rate: ONCO P-8 400 ng/ml or IL-8 200 ng/ml alone
Experimental: (§4) The invasion ability of cell was performed by using 8 μm pore size transwell (Corning Fluor® Blok™). The transwell insert was coated with 60 μl matrigel (300 μg/ml in serum-free medium, BD Bioscience) overnight at 37° C. in 5% CO2 atmosphere. 2.5×10^4 cells in 0.2 mL of serum-free growth medium were seeded into the upper chamber coated with matrigel and then treated with IL-8 (200 ng/ml) with/without ONCO P-8 (400 ng/ml). After incubation for 24 hrs at 37° C. in 5% CO2, membrane of upper chamber was fixed with methanol and stained with propidium iodide (PI). The invasive cells in the bottom of membrane were imaged and counted by using an inverted fluorescence microscope (Observer.Z1, Zeiss) in five random fields of each specimen (magnification, ×100).

BxPC-3GR [2] = test: Transwell invasion assay, BxPC-3GR; type: cell-based, Human; settings: Gemcitabine 100 nM; for invasion rate: ONCO P-8 400 ng/mL or IL-8 200 ng/mL, versus control
Experimental: as §4
(§5) The Gemcitabine-resistant cancer cells treated by Gemcitabine (100 nM) with ONCO P-8 (400 ng/mL), or treated by Gemcitabine with ONCO P-8 and IL-8 (200 ng/mL), or treated by Gemcitabine with IL-8 respectively for invasion ability assay.
(§6) The drug concentration: ONCO P-8 (400 ng/ml), Reparixin (200 nM), IL-8 (200 ng/ml), statistical significance: *P<0.05, **P<0.01,***P<0.001.

[3] = test system: gemcitabine-resistant cell (BxPC-3GR); test: Migration of Gemcitabine-resistant cancer cells; type: cell-based, Human; settings: ONCO P-8 400 ng/ml, IL-8 200 ng/ml
Experimental: as §6

CXCR2 = target: T1, CXCR2 (Homo sapiens, UniProt P25025); test: Indirect ELISA binding assay, CXCR2 complex formation; settings: versus IL-8
T1 sequence (P25025 1-360): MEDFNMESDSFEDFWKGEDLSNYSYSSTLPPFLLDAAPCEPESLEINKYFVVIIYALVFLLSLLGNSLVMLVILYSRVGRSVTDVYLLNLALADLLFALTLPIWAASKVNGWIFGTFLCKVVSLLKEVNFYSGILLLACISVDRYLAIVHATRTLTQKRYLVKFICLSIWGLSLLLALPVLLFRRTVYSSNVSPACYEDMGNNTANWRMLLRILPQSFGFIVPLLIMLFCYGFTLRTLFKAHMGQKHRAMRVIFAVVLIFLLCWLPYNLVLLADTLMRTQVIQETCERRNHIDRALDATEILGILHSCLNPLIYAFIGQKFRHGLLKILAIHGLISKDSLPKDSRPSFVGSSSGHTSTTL
Description: (§7) The Kd Equation include: (1) i=A450nm/A^max450 nm, then i=Ligand/Ligand^max; (2) 1/(1−i)=(Ligtot/i)/Kd−b, b=fqSrec/Kd.

CXCR1 = target: T2, CXCR1 (Homo sapiens, UniProt P25024); test: Indirect ELISA binding assay, CXCR1 complex formation; settings: versus IL-8
T2 sequence (P25024 1-350): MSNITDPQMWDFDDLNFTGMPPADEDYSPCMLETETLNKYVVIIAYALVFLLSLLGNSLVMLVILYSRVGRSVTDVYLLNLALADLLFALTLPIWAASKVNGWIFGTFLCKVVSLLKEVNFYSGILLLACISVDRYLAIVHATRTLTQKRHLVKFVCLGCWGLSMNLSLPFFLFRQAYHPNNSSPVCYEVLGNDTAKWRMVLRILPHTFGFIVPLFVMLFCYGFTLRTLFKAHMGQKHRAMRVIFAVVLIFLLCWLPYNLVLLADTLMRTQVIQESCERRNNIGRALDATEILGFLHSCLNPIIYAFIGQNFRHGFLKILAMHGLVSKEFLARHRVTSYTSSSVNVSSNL
Description: as §7

BxPC-3 = test: Colony formation assay, BxPC-3; type: cell-based, Human; settings: IL-8 200 ng/ml, ONCO P-8 400 ng/ml, 2 weeks
Experimental: Cells were Seeded in a 24-Well Plate at a Density of 1000 Cells Per well, treatment were executed 24 hr after seeding. The treatment included that the cells were treated with IL-8 (200 ng/ml), IL-8 (200 ng/ml) plus ONCO P-8 (400 ng/ml), or ONCO P-8 (400 ng/ml). After 2 weeks, the medium was removed and cells were washed with PBS and stained for 30 min in 0.1% w/v crystal violet (dissolved in methanol; 32675, Fluka® Analytical, USA). Area of colonies were identified by camera and analyzed by ImageJ analysis software. The results were calculated as follows: Colony formation rate (%)=(Treatment area of the colony/Control area of the colony)×100%

MIAPaCa2GR = test: Transwell invasion assay, MIAPaCa2GR; type: cell-based, Human; settings: Gemcitabine 100 nM
Experimental: as §4, §5

[4] = test system: CSC markers (NANOG, OCT4, SOX2, ALDHA1, BMI-1, KLF4, Nestin) in BxPC3GR-derived spheroids; test: RT-PCR of CSC markers in BxPC3GR-derived spheroids; type: cell-based, Human; settings: ONCO P-8 400 ng/ml (47 nM), Gemcitabine 100 nM
Experimental: FIG. 12A-12G illustrate RT-PCR analysis was performed to determine the effect of ONCO P-8 treatment on the expression levels of NANOG (FIG. 12A), OCT4 (FIG. 12B), SOX2 (FIG. 12C), ALDHA1 (FIG. 12D), BMI-1 (FIG. 12E), KLF4 (FIG. 12F) and Nestin (FIG. 12G) in BxPC3GR-derived spheroids with Gemcitabine. Drug resistance related CSC marker: NANOG, OCT4, SOX2. Cell invasion related CSC marker: ALDHA1, BMI-1. Tumor growth related CSC marker: KLF4, Nestin.
All real-time PCR reactions were performed with specific primers and taqman probes or probes from the Universal Probe Library (Roche Applied Science) in the StepOneTMReal-Time PCR system (Applied Biosystems™). 18 s was used as an internal loading control. The reactions were performed as follows: denaturation for 2 min at 50° C. and 10 min at 95° C., 50 cycles of 95° C. for 15 sec, and 60° C. for 1 min. […] Sequences of all primers used are listed below (F: Forward primer; R: Reverse primer): […]

BxPC-3 xenograft tumor = type: in vivo, BALB/c nude mice
Experimental: The PDAC xenograft tumor model treated by ONCO P-8, or treated by Gemcitabine with ONCO P-8, or treated by Gemcitabine, or treated by Gemcitabine, or treated PBS respectively. Gemcitabine administrations were about 100 mg/kg subject weight twice per week. ONCO P-8 administrations were about 500 μg/kg subject weight three times per week. […] The survival rate of xenograft model treated by ONCO P-8 or treated by Gemcitabine with ONCO P-8 is about 100%.
To evaluate the effect of ONCO P-8 in vivo, it was used the BxPC-3 model in 4-week old male BALB/c nude mice in the present invention. Mice were inoculated BxPC-3 cells subcutaneously. After 7 days, mice were treated with PBS or ONCO P-8 (500 μg/kg) by i.p injection three times a week. The initiation tumor size was 128.5±47.8 mm^3 in first treatment.

[5] = IL-8 200 ng/mL + ONCO P-8 400 ng/mL versus IL-8 group

Work on `Nc1ccn([C@@H]2O[C@H](CO)[C@@H](O)C2(F)F)c(=O)n1` [Gemcitabine] yielded an IC50 (BxPC-3 cells) of 6.13 nM, an IC50 (BxPC-3GR cells; BxPC-3GR cells, read-out: IC50-value in BxPC-3GR cells) of 236 nM and an IC50 (BxPC-3GR cells; BxPC-3GR resistant cells, read-out: IC50 (nM) Resistant cells) of 236 nM. For the same molecule, the IC50 (MIAPaCa2 cells) was 251 nM, the IC50 (MIAPaCa2GR cells) was 8620 nM and the proliferation rate (BxPC-3GR [1]) was “enhanced”.

For “IL-8: ELR-CXC chemokine CXCL8 (IL-8), ligand of CXCR1 and CXCR2 [reference compound]”, the invasive rate (BxPC-3 cell line) was “can enhance the cell invasion”, the invasion rate (BxPC-3GR [2]) was “can enhance” and the migration rate [3] was “can enhance the cell migration”.

B1: ONCO P-8: chemokine receptor antagonistic modified peptide (SEQ ID NO: 1), analogous protein of CXCL8 (IL-8), antagonist of CXCR1 and CXCR2 (protein)
chain: GSKELRCQCIRSYSKPFHPKFIKELRVIPASQFCANTEIIVKLSDGRELCLDPKENWVQRVVEKFLKRAENS
modifications: ONCO P-8
With B1 the “bind to CXCR2 tighter than IL-8” value (CXCR2) was 3-4 fold, the “bind to CXCR1 tighter than IL-8” value (CXCR1) was 3-4 fold and the “invasive rate in presence of CXCL8” value (BxPC-3 cell line; IL-8 200 ng/ml with ONCO P-8 400 ng/ml) was “can neutralize the effect of CXCL8 to reduce the invasive rate”. For the same molecule, the invasive rate (BxPC-3 cell line) was “can reduce the invasive rate”, the colony formation rate (BxPC-3) was “can neutralize the effect of CXCL8 to reduce the colony formation rate” and the “invasion rate in presence of IL-8” value (BxPC-3GR [2]; [5]) was “can prevent significantly invasion rate; also recorded: can neutralize the effect of CXCL8 to reduce the invasive rate”. The invasion rate (BxPC-3GR [2]) was “decreases invasion rate; also recorded: can reduce; also recorded: can inhibit the invasion ability; also recorded: can attenuate”, the “invasion rate in presence of IL-8” value (MIAPaCa2GR; [5]) was “can prevent significantly invasion rate” and the invasion rate (MIAPaCa2GR; ONCO P-8 400 ng/mL, versus control) was “decreases invasion rate; also recorded: can inhibit the invasion ability”. For the same molecule, the proliferation rate (BxPC-3GR [1]) was “significantly attenuated; also recorded: inhibited”, the migration rate [3] was “can reduce the migration rate; also recorded: can attenuate” and the “expression of CSC properties markers” value [4] was “can reduce the expression of these CSC properties markers”. The “survival rate / lifespan” value (BxPC-3 xenograft tumor; BxPC-3 xenograft) was “improve the survival rate”, the survival rate (BxPC-3 xenograft tumor; BxPC-3 xenograft, FIG. 13C) was “about 100%” and the “tumor growth (tumor size)” value (BxPC-3 xenograft tumor; BxPC-3 xenograft, ONCO P-8 500 μg/kg i.p. three times a week, Gemcitabine 100 mg/kg twice per week) was “significantly inhibited the tumor growth”. The “body weight of mice” value (BxPC-3 xenograft tumor; mouse, in vivo, ip) was “didn't lead to reduce the body weight”.

Reference: patent publication US12472227B2, “Pharmaceutical compositions and use thereof for relieving resistance due to cancer chemotherapy and enhancing effect of cancer chemotherapy” (Rise Biopharmaceuticals Inc., priority 2015, dated 2025)
